The target in assay [1] is soluble single-chain FcRn (human) (UniProt P55899). In words: SPR (BIACORE X), scFcRn amine-coupled to CM5 chip, antibody as analyte 25-400 nM, pH 6.0, two-state reaction model, Run 2. For orientation: In SPR one partner is held on a chip, and binding of the other changes the refractive index at the surface.
Assay [2] has the same target. Kind of assay: SPR (BIACORE X), scFcRn amine-coupled to CM5 chip, antibody as analyte 25-400 nM, pH 6.0, two-state reaction model, Run 1.
Assay [3] shares this target. Kind of assay: SPR (BIACORE X), scFcRn amine-coupled to CM5 chip, antibody as analyte 25-400 nM, pH 6.0, two-state reaction model, Run 3.
For assay [4] the target is unchanged. In words: SPR (BIACORE X), scFcRn amine-coupled to CM5 chip, pH 6.0, two-state reaction model, mean of three runs.

Chain of soluble single-chain FcRn (human) (P55899 24-297 limits assumed, chain 1 of 2): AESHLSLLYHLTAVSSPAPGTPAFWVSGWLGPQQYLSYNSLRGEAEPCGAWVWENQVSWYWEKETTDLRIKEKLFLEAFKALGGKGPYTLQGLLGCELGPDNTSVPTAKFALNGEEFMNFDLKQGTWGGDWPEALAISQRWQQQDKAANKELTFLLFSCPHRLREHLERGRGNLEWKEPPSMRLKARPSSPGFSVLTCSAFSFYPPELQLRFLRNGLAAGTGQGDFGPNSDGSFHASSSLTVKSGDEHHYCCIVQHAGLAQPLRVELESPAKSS
Chain of soluble single-chain FcRn (human) (P61769 21-119 limits assumed, chain 2 of 2, further chain): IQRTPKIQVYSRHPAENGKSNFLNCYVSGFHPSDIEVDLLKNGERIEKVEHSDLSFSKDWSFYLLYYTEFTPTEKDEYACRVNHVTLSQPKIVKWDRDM

As for epratuzumab (antibody), the Kd in assay [1] came out at 0.0179 µM; in assay [2], 0.015 µM; in assay [3], 0.0158 µM; in assay [4] it was 0.0163 µM.

By Kd is commonly meant the concentration at which binding is half-saturated. A low value points to higher affinity.

The record behind these values is patent US20160340443A1.
